From the nanobody polyreactivity screen of Harvey et al. (2022)

Assay: yeast display, Sf9 membrane polyspecificity reagent, FACS + sequencing; frameworks hold sequencing errors
Summary of the method: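 Nanobodies from a synthetic yeast display library (Saccharomyces cerevisiae BJ5465), induced 36–48 hours with galactose, were stained 1 hour at 4 °C with 10% biotinylated, detergent-solubilized Sf9 membrane reagent, enriched on streptavidin microbeads, then FACS-sorted. Anti-HA (expression) and streptavidin (reagent binding) fluorescence set low and high (top ~1%) gates. Polyreactivity labels come from the gate of origin. Genes were colony-PCR amplified, MiSeq 2 × 250 sequenced and filtered by CDR length.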

## QVQLVESGGGLVQAGGSLRLSCAASGNTFTKYAMGWYRQAPGKERELVAGITRGGSTNYADSVKGRFTISRDNAKNTVYLQMNSLKPEDTAVYYCNARPVYGSRFYSAVRMEYWGQGTQVNVSS
  polyreactivity (PSR sort gate): low polyreactivity

## QVQLVESGGGLVQAGGSLRLSCAASGTTFYNYAMGWYRQAPGQERELVAAISKTGGSTYYADSVKGRFTISRDNAKNTVYLQMNSLKPEDTAVYYCNAVALYPYTTYHYWGQGTQVTVSS
  polyreactivity (PSR sort gate): high polyreactivity

## QVQLVESGGGLVQAGGSLRLSFAASGITFVRYAMGWYRQPPGKERALVAAISRSGTSTYSADSVKGRFTISRDNAKNTVYLQMNSLKPEDTAVYYCYVRRYDYWGQGTQVTVSS
  polyreactivity (PSR sort gate): high polyreactivity

## QVQLVESGGGLVQAGGSLRLSCAASGNTFAGYAMGWYRQAPGKEMEWVAAISTRGGITYYADSVKGRFTISRDNAKNTVYLQMNCLKPEDTAVYYCAAEFYYPWTYCSCDGRRVYYWGQGTQVTVSS
  polyreactivity (PSR sort gate): high polyreactivity

## QVQLVESGGGLVQAGGSLRLSCAASGSIFGSYTMGWYRQAPGKERELVAAITSSGGGTYYADSVKGRFTISRDNAKNTVYLQMNSLKPEDTAVYYCAAEYRDGYRFSYDYWGQGTQVTVSS
  polyreactivity (PSR sort gate): low polyreactivity

## QVQLVESGGGLVQAGGSLRLSCAASGLNFWYYAMGWYRQAPGKERELVAAISWGGGSTYYADSVKGRFTISRDNAKNTVYLLMNSLKPEDTAVYYCAADSSYWYGTECDYWGQGTQVTVSS
  polyreactivity (PSR sort gate): high polyreactivity

## QVQLVESGGGLVQAGGSLRLSCAASGFIFWFNAIGWSRQEPGKEREWVATISWSDTSTYYADSVKGRFTISRDNAKNTVYLQMNSLKPEDTAVYYCATDGRETWLPEYYWGQGTQVTVSS
  polyreactivity (PSR sort gate): low polyreactivity

## HVQLVESGGGLVQAGGSLRLSCAASGFTSYLYTMGWYRQAPGKERELVAAISNSGGNTYYADSVKGRFTISRDNAKNTVYLQMNSLKPEDTAVYYCAARLFAAKYRYGYWGQGTQVTVSS
  polyreactivity (PSR sort gate): high polyreactivity

## QFQLVESGGGLVQAGGSLRLSCAASGSTFTNYAMGWYRQAPGKEREFVAAITFRGGRTYYADSVKGRFTISRHNAKNTVYLQLNSLKPEDTAVYYCNKRTSPKRFDYWGQGTQVTVSS
  polyreactivity (PSR sort gate): high polyreactivity

## QVQLLESGGGIVQAGGSLRLSCAASGRINAMGWYRQAPGKERELVAVITLRGGSTYYADSVKGRFTISRDNAKNTVYLQMNSLKPEYTAVYYCAAVYRWPDAKYDYWGQGTQVSVSS
  polyreactivity (PSR sort gate): low polyreactivity

## QVQRVESGGGLVQAGGSLRLSCAASGSILFHYAMGWYRQAPGKEREMVAAISRRGGSTYYADSVKGRFSISRDNAKNTVYLQMNSLKPEDTAVYYCAKYPSAYVDSDVTYDMDYWGQGTQVTVSS
  polyreactivity (PSR sort gate): low polyreactivity

## QVQLVESGGGLVQAGGSLRLSCAASGRIFHIYAMGWYRQAPGKERELVAAIRSSGGSTYYADSVKGRFTISRDNAKNTVYLQMNSLKPEDTAVYYCAVDYGNPVYWDEMYYWGQGTQVTVSS
  polyreactivity (PSR sort gate): low polyreactivity

## QVQLVESGGGLVQAVGSLRLSCAASGRTFAFYTMGWYRPAHGKERELVAAINWSGTRTYYADSVKGRVTISRDKAKNTVYLQMNSLKPEDTAVYYCNVAFFSLSLRTLGVEYWGQGTQVTVST
  polyreactivity (PSR sort gate): high polyreactivity

## QVQLVETGGGLVQAGGSLRLSCAASGSTFEYYAMGWYRQAPGKERELVAAISSGPSTTYADSVKGRFTISRDNAKNTVYLQMNSLKPEDTAVYYCARRDGTTQALFGYDYWGQGTQVTVSS
  polyreactivity (PSR sort gate): low polyreactivity

## QVQLVESGGGLVQAAGSLRLSCAASGRTFRAYAMGWYRQAPGKERELVAAISNRGTRTYYADSVKGRFTISRDNAKNTVYLQMNSLKPEDTAVYYCAAGNRVNRFDYWGQGTQVTVSS
  polyreactivity (PSR sort gate): high polyreactivity

## QVQLVESGGGLVQAGGSLRLSCAASGFTFSYYAMGWYRQAPGKERELVARISFSGTRTYYADSVKGRFTISRDNAKNTVYLQMNSLKPEDTAVYYCAARFGYVGITARYDYWGQGTQVTVSS
  polyreactivity (PSR sort gate): high polyreactivity

## QVQLVESGGGLVQAGGSLRLSCAASGRTVYKNTMGWYRQAPGKERELVAAISIRGGSTYYADSVKGRFTISRDNAKNTVYLQMNSLKPEDTAVYYCNVVYQKAARIVDFDYWGQGTQVTVSS
  polyreactivity (PSR sort gate): high polyreactivity

## QVQLVESGGGLVQAGGSLRLRCAASGSTFINNAMGWYRQAPGKERELVAAISGSGVSTYYADSVKGRFTISRDNAKNTVYLQMNSLKPEDTAVYYCNKRYRNYFWYKPYSTKYEYWGQGTQVTVSS
  polyreactivity (PSR sort gate): high polyreactivity

## QVQLVESGGGLVQAGGSLRISCAASGRIFGKNALGRYRQAPGKERDLVAAITGSGGSTYYADSVKGRFTISRDNAKNTVYLQMNSLKPEDTAVYYCATAYAVYHVEYGYWGQGTQVTVSS
  polyreactivity (PSR sort gate): low polyreactivity

## QVQLVESGGGLVQAGGSLRLSCAASGRTFTGYAMGWYRQAPGKERELVASISRRGGSTYYADSVKGRFTISRDNAKNTVYLQMNSLKPEDTAVYSCAADSVRHTYSWWYAVDYWGQGTQVTVSS
  polyreactivity (PSR sort gate): high polyreactivity

## QVHLVESGAGLVQAGGILRLSCAASGRIFAHYALGWYRQAPGKERELVAAISRGGSTKYADSVKGRFTISRDHAKNTVYFQMNSLKPEDTAVYYCARQLWGSPYGAYYAGDYWGQGTQVTVSS
  polyreactivity (PSR sort gate): low polyreactivity

## QVQLVESGGGLVQAGGSLRLSCAASGSTILSNAMGWYRQAPGKERELVARITSGGSTHYADSVKGRFTISRDNAKNTVYLQMNSLKPEDTAVYYCNADYWFVEYDYWGQGTQVTVSS
  polyreactivity (PSR sort gate): low polyreactivity

## QVQLVESGGGLVQAGGSLRLSCAASGSTFVRYAMGWYRQAPGKERELVAAISGGGSTSYADSVKGRFTISRDNAKNTVYLQMNSLKPEDTAVYYCAAEKYRWENDAYQYYTFDYWGQGTQVTVSS
  polyreactivity (PSR sort gate): low polyreactivity

## QVQLVESGGGLVQAGGSLRLSCAASGFTFKYNAMGWYRQAPGKERELVASISRGSSTNYADSVKGRFTISRDNAKNTVYLQMNSLKPEDTAVYYCAKGYRPWGSYDYWGQGTQVTVSS
  polyreactivity (PSR sort gate): high polyreactivity

## QVQLVESGGGLVQAGGSLRLSCAASGSIFASYAMGWYRQAPGKERELVAAISRSGTSTRYADSVKGRFTISRDNAKNTVYLLMNSLKPEDTAVYYCAARWYVFFRKYDYWGQGTQVTVSS
  polyreactivity (PSR sort gate): high polyreactivity

## QVQLVESGGGVVQAGGSLRLSCAASGRTIYFYAMGWYRQAPGKERELVAAITGSGGRTYYADSVKGRFTISRDHAKNTVYLQMNSLKTEDTAVYYCAAVPPPLARLYVAAKRFDSWGQGTQVTVSS
  polyreactivity (PSR sort gate): low polyreactivity

## QVQLVESGGGLVQAGGSLRLSCAASGNILLFNAMGWYRQAPGKERELVATINQSGGRTYYADSVKGRFTISRDNAKNTVYLQMNSLKPEDTAVYYCAATYVYWTWGYDYWGQGTLVTVSS
  polyreactivity (PSR sort gate): low polyreactivity

## QVQLVESGGGFVQAGGSLRLSCAASGVTYGGYAMGWYRQAPGKERELVAAITGSAGNTFYADSVKGRFTISRDNAKHTVYLQMNSLKPEDTAVYYCANTWYPWSRYGYYGRYDSWGLGTQVTVSS
  polyreactivity (PSR sort gate): low polyreactivity

## QVQLVESGGGLVQAGGSLRISCAASGRTFRYYGMGWYRQPPAKERVVAAITWSGDTTYYADSVKGRFTISRDNAKNTVYLQMNSLKPEDTAVYYFAAQSWHRYYYWGQGTQVTVSS
  polyreactivity (PSR sort gate): high polyreactivity

## QVQLVESGGGLVQAGGSLRLSCAACGRIFVRNAMGWYRQAPGKERELVADITNGGSTNYADSVKGRFTISRDNAKNTVYLQMNSLKPEDTAVYYCGAVYYSTDYYFWYDYWGQGTQVTVSS
  polyreactivity (PSR sort gate): low polyreactivity

## QFQLVESGGGFVQAGGSLRLSCAASGSIFLYNDMGWYRQAPGKDRELLPAITSDGSTNYADSVKGRFTISRDNAKNTVYLQMNSLKPEDTAVYYCAADALWFYLNWYYGGTAYGYWGQGTQVTVSS
  polyreactivity (PSR sort gate): low polyreactivity
